Measurements published in the Human Domainome abundance scans (Beltran et al. 2025).
± gives the uncertainty stated by the source.

B1: Androgen receptor, residues 557 to 632; numbered along this chain, P10275 (parent)
chain: QKTCLICGDEASGCHYGALTCGSCKVFFKRAAEGKQKYLCASRNDCTIDKFRRKNCPSCRLRKCYEAGMTLGARKL

Variants of: B1
Assay: abundance fitness (aPCA) (normalised: wild type 0, dead -1); higher = more abundant; growth selection in yeast, the domain comes from the species named
Details: Homo sapiens

Variant | abundance fitness
QKTCLICGDEASGCHYGALTCGSVKVFFKRAAEGKQKYLCASRNDCTIDKFRRKNCPSCRLRKCYEAGMTLGARKL [C24V] | -0.907 ± 0.048
QKTCLICGDEASGCHYGALTCGSWKVFFKRAAEGKQKYLCASRNDCTIDKFRRKNCPSCRLRKCYEAGMTLGARKL [C24W] | -0.903 ± 0.059
QKTCLICGDEASGCHYGALTCGSYKVFFKRAAEGKQKYLCASRNDCTIDKFRRKNCPSCRLRKCYEAGMTLGARKL [C24Y] | -1.08 ± 0.15
QKTCLICGDEASGCHYGALTCGSCNVFFKRAAEGKQKYLCASRNDCTIDKFRRKNCPSCRLRKCYEAGMTLGARKL [K25N] | 0.014 ± 0.032
QKTCLICGDEASGCHYGALTCGSCLVFFKRAAEGKQKYLCASRNDCTIDKFRRKNCPSCRLRKCYEAGMTLGARKL [K25L] | -0.099 ± 0.021
QKTCLICGDEASGCHYGALTCGSCHVFFKRAAEGKQKYLCASRNDCTIDKFRRKNCPSCRLRKCYEAGMTLGARKL [K25H] | -0.011 ± 0.035
QKTCLICGDEASGCHYGALTCGSCEVFFKRAAEGKQKYLCASRNDCTIDKFRRKNCPSCRLRKCYEAGMTLGARKL [K25E] | 0.044 ± 0.026
QKTCLICGDEASGCHYGALTCGSCRVFFKRAAEGKQKYLCASRNDCTIDKFRRKNCPSCRLRKCYEAGMTLGARKL [K25R] | -0.066 ± 0.021
QKTCLICGDEASGCHYGALTCGSCSVFFKRAAEGKQKYLCASRNDCTIDKFRRKNCPSCRLRKCYEAGMTLGARKL [K25S] | 0.03 ± 0.022
QKTCLICGDEASGCHYGALTCGSCAVFFKRAAEGKQKYLCASRNDCTIDKFRRKNCPSCRLRKCYEAGMTLGARKL [K25A] | 0.026 ± 0.022
QKTCLICGDEASGCHYGALTCGSCVVFFKRAAEGKQKYLCASRNDCTIDKFRRKNCPSCRLRKCYEAGMTLGARKL [K25V] | -0.043 ± 0.023
QKTCLICGDEASGCHYGALTCGSCWVFFKRAAEGKQKYLCASRNDCTIDKFRRKNCPSCRLRKCYEAGMTLGARKL [K25W] | -0.077 ± 0.025
QKTCLICGDEASGCHYGALTCGSCCVFFKRAAEGKQKYLCASRNDCTIDKFRRKNCPSCRLRKCYEAGMTLGARKL [K25C] | 0.012 ± 0.027
QKTCLICGDEASGCHYGALTCGSCFVFFKRAAEGKQKYLCASRNDCTIDKFRRKNCPSCRLRKCYEAGMTLGARKL [K25F] | -0.062 ± 0.029
QKTCLICGDEASGCHYGALTCGSCMVFFKRAAEGKQKYLCASRNDCTIDKFRRKNCPSCRLRKCYEAGMTLGARKL [K25M] | 0.013 ± 0.027
QKTCLICGDEASGCHYGALTCGSCDVFFKRAAEGKQKYLCASRNDCTIDKFRRKNCPSCRLRKCYEAGMTLGARKL [K25D] | -0.025 ± 0.03
QKTCLICGDEASGCHYGALTCGSCGVFFKRAAEGKQKYLCASRNDCTIDKFRRKNCPSCRLRKCYEAGMTLGARKL [K25G] | 0.013 ± 0.021
QKTCLICGDEASGCHYGALTCGSCTVFFKRAAEGKQKYLCASRNDCTIDKFRRKNCPSCRLRKCYEAGMTLGARKL [K25T] | 0.005 ± 0.025

Variant | abundance fitness
QKTCLICGDEASGCHYGALTCGSCIVFFKRAAEGKQKYLCASRNDCTIDKFRRKNCPSCRLRKCYEAGMTLGARKL [K25I] | -0.24 ± 0.033
QKTCLICGDEASGCHYGALTCGSCKLFFKRAAEGKQKYLCASRNDCTIDKFRRKNCPSCRLRKCYEAGMTLGARKL [V26L] | 0.008 ± 0.033
QKTCLICGDEASGCHYGALTCGSCKTFFKRAAEGKQKYLCASRNDCTIDKFRRKNCPSCRLRKCYEAGMTLGARKL [V26T] | -0.002 ± 0.04
QKTCLICGDEASGCHYGALTCGSCKNFFKRAAEGKQKYLCASRNDCTIDKFRRKNCPSCRLRKCYEAGMTLGARKL [V26N] | 0.069 ± 0.05
QKTCLICGDEASGCHYGALTCGSCKKFFKRAAEGKQKYLCASRNDCTIDKFRRKNCPSCRLRKCYEAGMTLGARKL [V26K] | 0.058 ± 0.037
QKTCLICGDEASGCHYGALTCGSCKHFFKRAAEGKQKYLCASRNDCTIDKFRRKNCPSCRLRKCYEAGMTLGARKL [V26H] | 0.039 ± 0.071
QKTCLICGDEASGCHYGALTCGSCKIFFKRAAEGKQKYLCASRNDCTIDKFRRKNCPSCRLRKCYEAGMTLGARKL [V26I] | 0.013 ± 0.051
QKTCLICGDEASGCHYGALTCGSCKPFFKRAAEGKQKYLCASRNDCTIDKFRRKNCPSCRLRKCYEAGMTLGARKL [V26P] | -0.772 ± 0.13
QKTCLICGDEASGCHYGALTCGSCKEFFKRAAEGKQKYLCASRNDCTIDKFRRKNCPSCRLRKCYEAGMTLGARKL [V26E] | 0.014 ± 0.071
QKTCLICGDEASGCHYGALTCGSCKMFFKRAAEGKQKYLCASRNDCTIDKFRRKNCPSCRLRKCYEAGMTLGARKL [V26M] | 0.053 ± 0.042
QKTCLICGDEASGCHYGALTCGSCKAFFKRAAEGKQKYLCASRNDCTIDKFRRKNCPSCRLRKCYEAGMTLGARKL [V26A] | -0.108 ± 0.12
QKTCLICGDEASGCHYGALTCGSCKSFFKRAAEGKQKYLCASRNDCTIDKFRRKNCPSCRLRKCYEAGMTLGARKL [V26S] | 0.038 ± 0.035
QKTCLICGDEASGCHYGALTCGSCKGFFKRAAEGKQKYLCASRNDCTIDKFRRKNCPSCRLRKCYEAGMTLGARKL [V26G] | -0.001 ± 0.046
QKTCLICGDEASGCHYGALTCGSCKFFFKRAAEGKQKYLCASRNDCTIDKFRRKNCPSCRLRKCYEAGMTLGARKL [V26F] | -0.13 ± 0.058
QKTCLICGDEASGCHYGALTCGSCKDFFKRAAEGKQKYLCASRNDCTIDKFRRKNCPSCRLRKCYEAGMTLGARKL [V26D] | 0.043 ± 0.077
QKTCLICGDEASGCHYGALTCGSCKQFFKRAAEGKQKYLCASRNDCTIDKFRRKNCPSCRLRKCYEAGMTLGARKL [V26Q] | 0.007 ± 0.05
QKTCLICGDEASGCHYGALTCGSCKRFFKRAAEGKQKYLCASRNDCTIDKFRRKNCPSCRLRKCYEAGMTLGARKL [V26R] | 0.019 ± 0.026
QKTCLICGDEASGCHYGALTCGSCKCFFKRAAEGKQKYLCASRNDCTIDKFRRKNCPSCRLRKCYEAGMTLGARKL [V26C] | -0.012 ± 0.058
